Data on one molecule can be found in patent publication EP3782644A1.

The assay has as its target ErbB2-Domain4 protein (human) (UniProt P04626). The assay can be described thus: indirect ELISA, ErbB2-Domain4 protein coated at 100 ng/well, antibody in serial dilution, absorbance at 450 nm. For orientation: In an ELISA, binding on a coated surface is turned into a signal by an enzyme label.

By EC50 is commonly meant the concentration needed to bring the measured effect to its halfway point.

B1: anti-ErbB2 monoclonal antibody 19G9 (antibody, V domains shown)
VH: LEQSGPGILQPSQTLSLICSFSGFSLSTSGMGVSWIRQPSGKGLEWLAHIYWDDDKRYNPSLKSRLTISKDTSSKQVFLKITSVDTADTATYYCALFAYYNYDGTVDYWGLGTSVTVSS
VL: DIVMTQTPSSLAVSVGEKVTMSCKSSQSLLHSRTRKNYLAWYQQKLGQSPKLLIYWASTRESGVPDRFTGSGSGTDFTLTISSVEAEDLAVYYCKQSYNLYTFGGGTKLEIK
B1 displayed an EC50 of 100 nM.
